Literature values, collected in publication PMC11276120.
pKd: −log10 of the molar value.

Experiments:
[1] = target: PCNA (Saccharomyces cerevisiae) (UniProt P15873); test: NMR
PCNA (Homo sapiens) = PCNA (Homo sapiens) (UniProt P12004)
Sequence of PCNA (Homo sapiens) (P12004 whole entry): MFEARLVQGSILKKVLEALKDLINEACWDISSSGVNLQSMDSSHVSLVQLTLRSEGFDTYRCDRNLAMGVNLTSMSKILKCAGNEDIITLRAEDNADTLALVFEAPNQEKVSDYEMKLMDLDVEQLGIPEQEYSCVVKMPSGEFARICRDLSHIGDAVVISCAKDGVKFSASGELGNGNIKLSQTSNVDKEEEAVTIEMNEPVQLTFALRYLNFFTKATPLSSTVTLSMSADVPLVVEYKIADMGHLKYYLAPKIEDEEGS

Sequence of PCNA (Saccharomyces cerevisiae) (P15873 whole entry): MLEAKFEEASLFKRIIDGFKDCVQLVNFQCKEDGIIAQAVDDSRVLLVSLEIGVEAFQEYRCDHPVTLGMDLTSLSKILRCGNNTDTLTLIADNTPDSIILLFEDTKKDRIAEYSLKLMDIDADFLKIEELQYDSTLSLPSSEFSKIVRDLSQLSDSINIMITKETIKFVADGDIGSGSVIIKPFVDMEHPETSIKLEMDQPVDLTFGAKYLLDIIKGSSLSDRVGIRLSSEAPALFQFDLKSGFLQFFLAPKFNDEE
Sequence of Rev1 BRCT (P12689 158-252): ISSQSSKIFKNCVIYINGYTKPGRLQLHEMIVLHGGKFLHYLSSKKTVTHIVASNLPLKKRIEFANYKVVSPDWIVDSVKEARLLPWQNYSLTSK
Sequence of p21WAF1/CIP1 PIP-box (P38936 139-160): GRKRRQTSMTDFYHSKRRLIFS

Substance: Rev1 BRCT (from UniProt P12689)
- pKd [1]: 4.10

Substance: p21WAF1/CIP1 PIP-box (from UniProt P38936)
- pKd (PCNA (Homo sapiens)): 7.10
